The substances below were run against rat FcεRI (α, β and γ subunits) on CHO-B12 cells (UniProt P12371) (assay: not given).

Substance	antigen-induced phosphorylation of receptor tyrosines
full length, catalytically inactive Lyn B kinase (Lys279 to Arg), rat, expressed in CHO-B12 cells	20-75% less antigen-induced phosphorylation of receptor tyrosines than cells transfected with the vector alone

What follows are substances tested against C-terminal (201-243) cytoplasmic domain of the rat FcεRIβ, Gal 4 DNA binding domain fusion protein (pAS2-1-βC) (rat) (assay: yeast two-hybrid, liquid β-galactosidase assay, strain Y187).

Substance	LacZ reporter (β-galactosidase) activity, fold over the negative control pACT-27-66-OOF [fold]	strength of the interaction by β-galactosidase activity, relative to p53 and SV40 [per cent]
unique domain of Lyn A (amino acids 1-66), Gal 4-activation domain fusion protein (from UniProt Q07014 1-66)	3	1
unique domain of Lyn B (amino acids 1-45), Gal 4-activation domain fusion protein (from UniProt Q07014 1-66)	3	1
full length Lyn B, Gal 4-activation domain-kinase fusion protein (from UniProt P04386 768-881) (enzyme)	3	1
full length Lyn A, Gal 4-activation domain-kinase fusion protein (from UniProt P04386 768-881) (enzyme)	3	1

— patent publication US6353097
